{"source": "patent US20210205445A1", "target": "Dectin-2 on murine bone marrow-derived dendritic cells (mouse) (UniProt Q9JKF4)", "sequence (Q9JKF4 whole entry)": "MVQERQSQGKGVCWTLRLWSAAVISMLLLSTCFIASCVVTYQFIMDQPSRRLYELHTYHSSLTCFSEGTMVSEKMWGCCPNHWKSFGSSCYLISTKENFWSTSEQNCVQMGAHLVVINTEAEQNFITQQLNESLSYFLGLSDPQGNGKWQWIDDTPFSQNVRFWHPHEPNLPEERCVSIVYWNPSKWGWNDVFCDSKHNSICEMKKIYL", "experiment": "cell-based or functional assay", "data": [{"substance": "recombinant Bl-Eng2 (Blastomyces dermatitidis Eng2 expressed in Pichia pastoris, C-terminal Myc-6xHis tag) (ligand)", "values": [{"measurement": "Ligand induced IL-6 production by murine BMDC, against Furfurman, Man-Lam and MP98", "result": "> 100", "unit": "fold"}]}]}
